The text below walks through data of the supplement of paper PMC10567573.

To fix the notation:
B1: FBXO3 (parent)
chain: FIDTYSDVGRYIDHYAAIKKAWDD
B2: FEM1A (parent)
chain: PCCSSSPEEPLNGESYESCCPTSR
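Further: lentivirally expressed fusions sorted by FACS into six bins by GFP to DsRed ratio, PSI derived from sequencing read proportions per bin multiplied by bin number.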

The variants in the first series derive from B1. Put plainly: protein stability index of a GFP-peptide fusion (GPS, HEK-293T) (PSI 1-6); higher = more stable. The conditions noted are these: c terminus: a fixed tail appended.
On to FIDTYSDVGRYIGHYAAIKKAWDD, for which the protein stability index amounted to 2.6. Same read-out and setting: under FIDTYSDVGRYIDHYAAIKKNWDD stands 2. On to FIDTYSFVGRYIDHYAAIKKAWDD, for which the protein stability index is 2.79.

Turning to FIDTYSNVGRYIDHYAAIKKAWDD, the protein stability index was 1.77. On the same count and under the same terms, under FIDTYSQVGRYIDHYAAIKKAWDD stands 1.53; under FIDSYSDVGRYIDHYAAIKKAWDD, 1.89; under FIDDYSDVGRYIDHYAAIKKAWDD, 2.04. Still for that read-out and setting: the result for FIDTYSDVGRYIDHYAAIKKAWDW reads 2.07; that for FIDTYSDVGRYIDHYAAIKKAWDE, 2.4. On the same count and under the same terms, under FIDTYSDVGRYIDHYAAIKKAWDN stands 1.54. In the case of FIDTYSDVERYIDHYAAIKKAWDD, the protein stability index was 2.15.

Turning to FIDTYSDVGRYIDHYAAIKWAWDD, the protein stability index turned out to be 2.86. Still for that read-out and setting: under FYDTYSDVGRYIDHYAAIKKAWDD stands 2.5. Same read-out and setting: the result for FIDTYSDVGRYIDHYADIKKAWDD reads 2.23. The same measure, in the same setting: under FIDTYSDVGRYIDHYACIKKAWDD stands 1.92; under FIDTYSDVGRYIDHYAAIKKAEDD, 2.1. As for FIDTYSDVGRYIDHYAAIKKALDD, the protein stability index was determined as 2.29.

Consider FIDTYSDVGRYIDHDAAIKKAWDD, for which the protein stability index was 2.08.

For the variant FIDTYSDVGRYIDHYVAIKKAWDD, the protein stability index turned out to be 2.6. On the same count and under the same terms, the result for FIDTTSDVGRYIDHYAAIKKAWDD reads 2.23.

Variants of B2 are the subject of a further series. The series is described as above. Conditions: c terminus: a fixed tail appended.
As to PCCSSSPEEPLNGESYISCCPTSR, the protein stability index came out at 2.83. The same measure, in the same setting: under PCCSSSPEEPLNGESYVSCCPTSR stands 2.87; under PCCSSSPEEPLNGESYYSCCPTSR, 2.52. On the same count and under the same terms, under PCCSSSPEEPLNGESYNSCCPTSR stands 3.37; under PCCSSSPEEPLNGESYFSCCPTSR, 3.55; under PCCSSSPEEPLNGESYASCCPTSR, 3.04. Same read-out and setting: under PCCSSSPEEPLNGESYKSCCPTSR stands 3.25; under PCCSSSPEEPLNGESYMSCCPTSR, 3.44. Consider PCCSSSPEEPLNGESYRSCCPTSR, for which the protein stability index is 2.67. For PCCSSSPEEPLNGESYESCCPFSR, the protein stability index came out at 3.36.

As for PCCSSSPEEPLNGESYESCCPHSR, the protein stability index came to 3.37. Still for that read-out and setting: under PCCSSSPEEPLNGESYESCCPESR stands 4.53; under PCCSSSPEEPLNGESYESCCPSSR, 4.04; under PCCSSSPEEPLNGESYESCCPQSR, 4.21. The same measure, in the same setting: under PCCSSSPEEPLNGESYESCCPASR stands 3.99.

For the variant PCCSSSPEEPLNGESYESCCPRSR, the protein stability index was 3.09. Still for that read-out and setting: the result for PCGSSSPEEPLNGESYESCCPTSR reads 4.91.

PCISSSPEEPLNGESYESCCPTSR: the protein stability index turned out to be 4.19. Same read-out and setting: under PCMSSSPEEPLNGESYESCCPTSR stands 5.05; under PCCSSSVEEPLNGESYESCCPTSR, 4.45.

Regarding PCCSSSEEEPLNGESYESCCPTSR, the protein stability index came to 3.93. In the case of PCCSSSAEEPLNGESYESCCPTSR, the protein stability index came out at 3.34. Still for that read-out and setting: under PCCSSSHEEPLNGESYESCCPTSR stands 3.37. On the same count and under the same terms, under PCCSSSNEEPLNGESYESCCPTSR stands 3.14; under PCCSSSSEEPLNGESYESCCPTSR, 3.62. Same read-out and setting: the result for PCCSSSGEEPLNGESYESCCPTSR reads 3.38; that for PCCSSSCEEPLNGESYESCCPTSR, 3.67; that for PCCSSSKEEPLNGESYESCCPTSR, 3.65. In the case of PCCSSSPEEKLNGESYESCCPTSR, the protein stability index was 3.5.

As to PCCSSSPEERLNGESYESCCPTSR, the protein stability index worked out at 3.82.

Turning to PCCSSSPEEVLNGESYESCCPTSR, the protein stability index was determined as 3.73. Same read-out and setting: the result for PCCSSSPEECLNGESYESCCPTSR reads 3.46.

Take PCCSSSPEEWLNGESYESCCPTSR: the protein stability index was 2.25.

Turning to PCCSSSPEEHLNGESYESCCPTSR, the protein stability index was 3.46. The same measure, in the same setting: under PCCSSSPEESLNGESYESCCPTSR stands 3.91; under PCCSSSPEEFLNGESYESCCPTSR, 3.5.

For FCCSSSPEEPLNGESYESCCPTSR, the protein stability index was found to be 3.17. For the variant DCCSSSPEEPLNGESYESCCPTSR, the protein stability index stood at 4.55. For the variant CCCSSSPEEPLNGESYESCCPTSR, the protein stability index amounted to 1.83.

For GCCSSSPEEPLNGESYESCCPTSR, the protein stability index turned out to be 4.6. Same read-out and setting: the result for TCCSSSPEEPLNGESYESCCPTSR reads 3.6. Same read-out and setting: under YCCSSSPEEPLNGESYESCCPTSR stands 3.26; under LCCSSSPEEPLNGESYESCCPTSR, 3.69. In the case of WCCSSSPEEPLNGESYESCCPTSR, the protein stability index stood at 2.77.

PCCSSSPEEPLNGESYESCPPTSR: the protein stability index is 3.06. Still for that read-out and setting: the result for PCCSSSPEEPLNGESYESCDPTSR reads 4.12; that for PCCSSSPEEPLNGESYESCKPTSR, 3.31. On the same count and under the same terms, under PCCSSSPEEPLNGESYESCRPTSR stands 4.08; under PCCSSSPEEPLNGESYESCGPTSR, 3.25.

Take PCCSSSPEEPLNGESYESCVPTSR: the protein stability index came to 3.47.

Turning to PCCSSSPEEPLNGESYESCTPTSR, the protein stability index was determined as 3.91. On the same count and under the same terms, under PCCSSSPEEPLNGESYEDCCPTSR stands 4.23. The same measure, in the same setting: under PCCSSSPEEPLNGESYEMCCPTSR stands 3.06. Still for that read-out and setting: the result for PCCSSSPEEPLNGESYEWCCPTSR reads 2.5; that for PCCSSSPEEPLNGESYENCCPTSR, 3.68; that for PCCSSSPEEPLNGESYEYCCPTSR, 3.07.

As to PCCSSSPEEPLNGESGESCCPTSR, the protein stability index worked out at 3.9. On the same count and under the same terms, under PCCSSSPEEPLNGESCESCCPTSR stands 4.27. Same read-out and setting: the result for PCCSSSPEEPLNGESHESCCPTSR reads 4.59. On the same count and under the same terms, the result for PCCSSSPEEPLNGESQESCCPTSR reads 4.55; that for PCCSSSPEEPLNGESMESCCPTSR, 3.83. On to PCCSSSPEEPLNGESFESCCPTSR, for which the protein stability index is 3.97. Same read-out and setting: under PCCSSSPEEPLNGESAESCCPTSR stands 3.55; under PCCSSSPEEPLNGESRESCCPTSR, 3.35; under PCCSSSPEEPLNGESVESCCPTSR, 4.35. On to PCCSSSPEEPLNGESPESCCPTSR, for which the protein stability index was 4.61. Still for that read-out and setting: the result for PCCSSCPEEPLNGESYESCCPTSR reads 3.63. On the same count and under the same terms, the result for PCCSSGPEEPLNGESYESCCPTSR reads 3.53; that for PCCSSKPEEPLNGESYESCCPTSR, 3.18. On the same count and under the same terms, the result for PCCSSRPEEPLNGESYESCCPTSR reads 3.66; that for PCCSSNPEEPLNGESYESCCPTSR, 3.81. Take PCCSSAPEEPLNGESYESCCPTSR: the protein stability index came out at 3.22. On the same count and under the same terms, the result for PCCSSSPEEPLNGEHYESCCPTSR reads 3.92; that for PCCSSSPEEPLNGEEYESCCPTSR, 3.61.
